Holding throughout (conditions): both partners purified
The target of assay [1] is T1, PIK3R3 C-terminal SH2 domain (human).
T1 construct: PIK3R3, human; source: bacterial expression, purified
The experiment in a line: SPR; Biacore 3000; 6X His SH2 proteins held on a Ni-NTA chip, dye-free peptides in solution, equilibrium. (In SPR one partner is held on a chip, and binding of the other changes the refractive index at the surface.)

A further assay addresses T2, GRB7 SH2 domain (human, UniProt Q14451 431-527).
T2 construct: GRB7, human; source: bacterial expression, purified
Briefly: fluorescence polarisation; competition: rhodamine peptide 10 nM, protein at four times its KD, unlabeled competitor peptide in 11 serial 1:3 dilutions; Ki from IC50, one-site model. In general terms: Fluorescence polarisation rises when a labelled molecule tumbles more slowly, as on binding a larger partner.

Assay [2] deals with T3, PLCG1 C-terminal SH2 domain (human).
T3 construct: PLCG1, human; source: bacterial expression, purified
T3 sequence (P19174 whole entry, looked up): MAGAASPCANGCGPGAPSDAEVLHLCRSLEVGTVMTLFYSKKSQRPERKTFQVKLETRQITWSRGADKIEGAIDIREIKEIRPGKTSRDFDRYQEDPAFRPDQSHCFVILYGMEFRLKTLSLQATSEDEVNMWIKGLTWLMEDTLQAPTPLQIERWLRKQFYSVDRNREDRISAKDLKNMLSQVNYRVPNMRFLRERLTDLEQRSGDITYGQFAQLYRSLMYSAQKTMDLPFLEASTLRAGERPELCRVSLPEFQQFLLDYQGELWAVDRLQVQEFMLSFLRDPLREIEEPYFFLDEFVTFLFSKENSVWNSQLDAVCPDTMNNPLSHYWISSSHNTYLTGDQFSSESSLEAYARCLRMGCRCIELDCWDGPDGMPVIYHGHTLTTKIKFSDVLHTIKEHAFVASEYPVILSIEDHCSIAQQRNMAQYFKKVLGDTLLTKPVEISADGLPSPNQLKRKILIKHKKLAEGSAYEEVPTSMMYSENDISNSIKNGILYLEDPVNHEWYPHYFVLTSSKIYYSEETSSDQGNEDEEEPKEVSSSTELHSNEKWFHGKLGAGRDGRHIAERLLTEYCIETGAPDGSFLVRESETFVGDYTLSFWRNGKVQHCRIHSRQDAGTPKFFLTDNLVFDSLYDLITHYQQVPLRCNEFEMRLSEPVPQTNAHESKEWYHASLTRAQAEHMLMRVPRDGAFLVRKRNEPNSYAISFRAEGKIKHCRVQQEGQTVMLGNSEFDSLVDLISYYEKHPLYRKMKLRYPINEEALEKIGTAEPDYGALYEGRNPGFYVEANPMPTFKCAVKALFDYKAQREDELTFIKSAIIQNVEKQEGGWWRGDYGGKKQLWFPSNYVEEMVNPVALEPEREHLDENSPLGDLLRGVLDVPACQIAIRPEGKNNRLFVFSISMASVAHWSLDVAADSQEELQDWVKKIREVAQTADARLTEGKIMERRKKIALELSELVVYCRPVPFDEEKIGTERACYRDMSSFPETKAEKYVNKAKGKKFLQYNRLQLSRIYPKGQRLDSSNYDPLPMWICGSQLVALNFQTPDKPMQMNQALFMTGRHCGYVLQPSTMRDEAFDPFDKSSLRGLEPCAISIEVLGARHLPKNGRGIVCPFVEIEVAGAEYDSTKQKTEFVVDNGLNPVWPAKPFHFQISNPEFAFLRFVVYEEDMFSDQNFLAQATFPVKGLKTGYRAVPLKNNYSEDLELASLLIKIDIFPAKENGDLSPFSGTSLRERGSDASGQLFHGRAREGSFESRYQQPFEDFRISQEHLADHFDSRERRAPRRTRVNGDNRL
The experiment in a line: fluorescence polarisation; saturation binding in solution: rhodamine peptide fixed at 10 nM, protein titrated 0.002-10 uM, 20 min at room temperature; assay buffer 20 mM HEPES, 100 mM KCl, 0.1% Tween-20, 5 mM DTT, pH 7.8; apparent KD.

Assay [3] deals with T4, PIK3R1 N-terminal SH2 domain (human).
T4 construct: PIK3R1, human; source: bacterial expression, purified
The assay is described as above.

The target of assay [4] is T1, PIK3R3 C-terminal SH2 domain. The assay is described as above.
A further assay concerns the target T5, GRB2 SH2 domain (human, UniProt P62993 60-152).
T5 construct: GRB2, human; source: bacterial expression, purified
Briefly: fluorescence polarisation; competition: rhodamine peptide 10 nM, protein at four times its KD, unlabeled competitor peptide in 11 serial 1:3 dilutions; Ki from IC50, one-site model.

Assay [5] addresses T3, PLCG1 C-terminal SH2 domain. The experiment in a line: SPR; Biacore 3000; 6X His SH2 proteins held on a Ni-NTA chip, dye-free peptides in solution, equilibrium.
The target of assay [6] is T4, PIK3R1 N-terminal SH2 domain. The description is as above.
Assay [7] deals with T6, PTK6 SH2 domain (human, UniProt Q13882 78-170).
T6 construct: PTK6, human; SH2 domain; source: bacterial expression culture, purified
The experiment in a line: fluorescence polarisation; competition; fluorescent peptide 10 nM, protein at four times the calculated KD, unlabeled competitor peptide at 11 serial 1:3 dilutions; at least 20 minutes; IC50 from a four-parameter log-logistic fit, one-site competition model.
T6 sequence (Q13882 78-170): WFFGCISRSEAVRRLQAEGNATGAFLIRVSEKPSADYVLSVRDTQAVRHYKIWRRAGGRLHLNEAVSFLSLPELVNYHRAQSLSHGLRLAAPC

For assay [8], the target named is T7, PTK6 SH2 domain (human, UniProt Q13882 78-170).
T7 construct: PTK6, human; source: bacterial expression, purified
The experiment in a line: fluorescence polarisation; saturation binding in solution: rhodamine peptide fixed at 10 nM, protein titrated 0.002-10 uM, 20 min at room temperature; assay buffer 20 mM HEPES, 100 mM KCl, 0.1% Tween-20, 5 mM DTT, pH 7.8; apparent KD.
T7 sequence (Q13882 78-170): as above

Assay [9] has as its target T6, PTK6 SH2 domain. Briefly: fluorescence polarisation; saturation binding in solution; rhodamine-labeled peptide fixed at 10 nM, protein titrated 0.002-10 µM (twelve two-fold dilutions); 20 minutes at room temperature in the dark; assay buffer 20 mM HEPES, 100 mM KCl, 0.1% Tween-20, 5 mM DTT, pH 7.8; apparent KD; assay detection threshold of 20 µM.

Non-standard residues stand in square brackets, D forms with d. No end group written: not given here. pY = N[C@@H](Cc1ccc(OP(=O)(O)O)cc1)C(=O)O; Rhodamine = not defined here; rhodamine = not defined here

T5 sequence (P62993 60-152): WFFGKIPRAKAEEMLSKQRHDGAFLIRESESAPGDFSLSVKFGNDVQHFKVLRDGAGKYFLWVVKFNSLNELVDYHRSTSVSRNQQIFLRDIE
T2 sequence (Q14451 431-527): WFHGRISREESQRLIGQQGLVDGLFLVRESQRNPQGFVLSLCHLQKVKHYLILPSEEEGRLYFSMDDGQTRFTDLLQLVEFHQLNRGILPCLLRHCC

With TNHI[pY]SNLANCS [KIT pY936 phosphopeptide, dye-free], the Kd in assay [1] worked out at 4 nM.

B1: ErbB3pY1197 phosphopeptide, unlabeled competitor (peptide)
peptide: EDEE[pY]EYMNRRRD
notes: human ErbB3 around Tyr1197; source: synthetic peptide
For B1, the affinity with GRB7 SH2 domain corresponds to a Ki of 113 nM. For the molecule Rhodamine-DPQD[pY]LLLINCQD (reading uncertain) [Gab1 pY183 phosphopeptide, rhodamine-labelled], the Kd in assay [2] was 2040 nM; in assay [3] it was 4260 nM; in [4], 3790 nM.

B2: ErbB2pY1139 phosphopeptide, unlabeled competitor (peptide)
peptide: PQPE[pY]VNQPDVRD
notes: human ErbB2 around Tyr1139; source: synthetic peptide
For B2, the affinity in the assay with GRB2 SH2 domain, expressed as Ki, was 1710 nM.

B3: ErbB4pY1208 phosphopeptide, unlabeled competitor (peptide)
peptide: NEPL[pY]LNTFANTD
notes: human ErbB4 around Tyr1208; source: synthetic peptide
With B3, the Ki – broadly, a dissociation constant, usually derived from enzyme kinetics or from competition with a known ligand – in the assay with GRB2 SH2 domain is 6850 nM.

Take NNYV[pY]IDPTQLPD [KIT pY570 phosphopeptide, dye-free]: the Kd in assay [5] amounted to 1360 nM. Take QEAN[pY]VPMTPGTD [Gab1 pY472 phosphopeptide, dye-free]: the Kd in [6] was 251 nM; in [1] it was 18 nM.

B4: ErbB3pY1260 phosphopeptide, unlabeled competitor (peptide)
peptide: PDED[pY]EYMNRQRD
notes: human ErbB3 around Tyr1260; source: synthetic peptide
B4 came in with a Ki with GRB7 SH2 domain of 131 nM.

Regarding Rhodamine-QEAN[pY]VPMTPGTD (reading uncertain) [Gab1 pY472 phosphopeptide, rhodamine-labelled], the Kd in assay [3] was determined as 2330 nM; in [4], 255 nM. With FGTV[pY]KGIWIPD [ErbB2-pY735 phosphopeptide, unlabeled competitor], the IC50 – broadly, the concentration at which inhibition is half-maximal – in the assay with PTK6 SH2 domain [7] was 148000 nM. FGCV[pY]HGTLLDN [MET pY1093 phosphopeptide, dye-free] had a Kd in [1] of 3550 nM. DPQD[pY]LLLINCQD [Gab1 pY183 phosphopeptide, dye-free]: the Kd in assay [5] was 146 nM; in assay [6] it was 722 nM; in assay [1], 137 nM. As for Rhodamine-NNYV[pY]IDPTQLPD (reading uncertain) [KIT pY570 phosphopeptide, rhodamine-labelled], in assay [2], the Kd was determined as 3830 nM. As for rhodamine-FGCV[pY]HGTLLDND (reading uncertain) [MET pY1093 phosphopeptide, rhodamine-labelled], in assay [4], the Kd was found to be 2560 nM.

B5: ErbB3pY1289 phosphopeptide, rhodamine-labelled (peptide)
peptide: rhodamine-SEQG[pY]EEMRAFQD
modifications: reading uncertain
notes: human ErbB3 around Tyr1289; also called labeled peptide 7; source: synthetic peptide
As to B5, the Kd with PTK6 SH2 domain [8] was 2110 nM.

For Rhodamine-FGTV[pY]KGIWIPD (reading uncertain) [ErbB2-pY735 phosphopeptide, rhodamine-labelled], the Kd in the assay with PTK6 SH2 domain [9] is not below 20000 nM.
